The target of one assay is T1, KLF4 (Homo sapiens, UniProt O43474).
T1 construct: host or cells: rabbit reticulocyte lysate, cell-free transcription/translation
The experiment in a line: GST pull-down assay with 35S-labeled KLF4. The format is binding. The following applies: adsorbates to glutathione beads, 2 h at 4° C., autoradiography. The protocol:
FIG. 3D is a pair of photographs of (a) an autoradiogram and (b) a Coomassie blue stained polyacrylamide gel. GST, GST-MUC1-CD(1-72), GST-MUC1-CD(47-72), or GST-MUC1-CD(1-46) were bound to glutathione-conjugated agarose beads and incubated with [^35S]-labeled KLF4 protein. The beads were washed to remove unbound KLF4 protein. The remaining adsorbates were analyzed by SDS-PAGE and autoradiography (top photograph). Input KLF4 protein is shown in the first lane of the top photograph. Input of the GST and GST-MUC1-CD fusion proteins was assessed by Coomassie blue staining. The molecular weights of the proteins (expressed in kilodaltons (kDa)) are indicated at the left of each of the photographs.
GST pull-down assays. GST and GST fusion proteins were purified by binding to glutathione-agarose beads (Sigma). ^35S-labeled KLF4, prepared in rabbit reticulocyte lysate transcription/translation (TNT) reactions (Promega Corporation), was incubated with GST or the GST fusion proteins for 2 h at 4° C. After washing, the adsorbed proteins were resolved by SDS-PAGE and analyzed by autoradiography.
To determine if MUC1-C occupies the PE21 region with KLF4, Re-ChIP assays were performed using anti-MUC1-C and anti-KLF4 antibodies. […] Moreover, DNA damage had little if any effect on this interaction (FIG. 7B). […]

Assay [1] has as its system ZR-75-1 breast cancer cells. The experiment in a line: Immunoblot analysis of p53 in ZR-75-1 cells. The format is cell-based, human. The following applies: ZR-75-1/MUC1siRNA cells transfected with pCMV-MUC1-CD, 24 hours. Background: In western blotting, separated proteins are transferred to a membrane and probed.
Experimental: Cell culture. […] Human ZR-75-1 breast cancer cells and those stably infected with a control siRNA (ZR-75-1/CsiRNA) or one expressing a MUC1siRNA (ZR-75-1/MUC1siRNA) (Wei et al. (2006) Mol. Cell. 21: 295-305) were cultured in RPMI 1640 medium supplemented with 10% HI-FBS, 100 μg/ml streptomycin, 100 units/ml penicillin, and 2 mM L-glutamine.
Immunoblotting. […] Immunoblot analysis was performed with anti-p53 (Ab-2, Ab-6; Oncogene Research Products), anti-MUC1-C (Ab-5; Neomarkers, Freemont, Calif.), anti-KLF4 (H-180; Santa Cruz Biotechnology), anti-β-actin (Sigma), anti-IκBα (Santa Cruz Biotechnology), or anti-PCNA (F-2; Santa Cruz Biotechnology) antibodies. Whole cell lysates were also, prior to analysis by immunoblotting, first subjected to immunoprecipitation with an anti-KLF4 antibody. Immunocomplexes were detected with enhanced chemiluminescence (ECL; PerkinElmer Life Sciences).
Assay [2] concerns p53 promoter. Put plainly: p53 promoter-Luc reporter assay in ZR-75-1 cells. In kind it is cell-based, human. The protocol: FIG. 4A is a bar graph (left) and a series of photographs of western blots (right) depicting the suppression of p53 gene transcription by MUC1. Bar graph, Left: ZR-75-1/MUC1siRNA cells were transfected with the −2400-p53-Luc reporter or the −320-p53-Luc reporter construct. The X-axis indicates the amount of MUC1-CD DNA (and a control LacZ expression plasmid) in μg (“μg MUC1-CD) also transfected into each cell. the indicated amounts of MUC1-CD. At 40 h after transfection, lysates were prepared from the transfected cells and assayed for luciferase activity. The Y-axis represents the relative luciferase activity expressed as fold activation (mean±SD of 3 separate experiments) compared to that obtained with empty vector-transfected cells (assigned a value of 1). Western blots, right: ZR-75-1/MUC1siRNA cells were transfected with the indicated amounts (in μg) of pCMV or pCMV-MUC1-CD vectors. At 24 hours after transfection, lysates from the indicated ZR-75-1/MUC1siRNA cells were immunoblotted (“IB”) with antibodies specific for p53, MUC1-C, or β-actin (as indicated below each photograph). […]
FIG. 4B is a pair of bar graphs. […] The Y-axis represents the relative luciferase activity expressed as the fold activation (mean±SD of 3 separate experiments) compared to that obtained with empty vector-transfected cells (assigned a value of 1). […]
Background: In a reporter assay the amount or activity of a reporter protein is the signal.

Assay [3] concerns p53 promoter. The experiment in a line: p53 promoter-Luc reporter assay in MCF-7 cells. The format is cell-based, human. The conditions noted are these: −2400-p53-Luc, 0.5 μg MUC1-CD, increasing amounts of KLF4. As for the experimental part: FIG. 4B is a pair of bar graphs. MCF-7 (left bar graph) or ZR-75-1 (right bar graph) cells were transfected with the −2400-p53-Luc reporter, the indicated amounts (0, 0.5, or 1 μg) of KLF4, 0.5 μg MUC1-CD and an internal control LacZ expression plasmid (pCMV-LacZ). At 40 hours after transfection, the cells were assayed for luciferase activity (as described above). The Y-axis represents the relative luciferase activity expressed as the fold activation (mean±SD of 3 separate experiments) compared to that obtained with empty vector-transfected cells (assigned a value of 1).
Transfection and reporter assays. Transfections were performed in 60 mm dishes using Fugene-6 (Roche Applied Science) or, for the luciferase assays, in 24 well plates using the calcium phosphate method (Invitrogen). Cells were transfected with the −2400-p53-Luc reporter, −2400-PE21-MUT-Luc reporter, −320-p53-Luc reporter, −320-PE21-MUT-Luc reporter (Rowland et al. (2005) Nat. Cell Biol. 7: 1074-1082) and an internal control LacZ expression plasmid (pCMV-LacZ) (Wei et al. (2001) J. Biol. Chem. 276: 16107-16112). Luciferase assays were performed with the Luciferase Assay System (Promega Corporation, Madison, Wis.) at 40 hours after transfection. Luciferase activity was normalized to that obtained for LacZ and presented as relative luciferase activity. […]

Ends that are not written are not given here.

T1 sequence (O43474 10-513 limits assumed): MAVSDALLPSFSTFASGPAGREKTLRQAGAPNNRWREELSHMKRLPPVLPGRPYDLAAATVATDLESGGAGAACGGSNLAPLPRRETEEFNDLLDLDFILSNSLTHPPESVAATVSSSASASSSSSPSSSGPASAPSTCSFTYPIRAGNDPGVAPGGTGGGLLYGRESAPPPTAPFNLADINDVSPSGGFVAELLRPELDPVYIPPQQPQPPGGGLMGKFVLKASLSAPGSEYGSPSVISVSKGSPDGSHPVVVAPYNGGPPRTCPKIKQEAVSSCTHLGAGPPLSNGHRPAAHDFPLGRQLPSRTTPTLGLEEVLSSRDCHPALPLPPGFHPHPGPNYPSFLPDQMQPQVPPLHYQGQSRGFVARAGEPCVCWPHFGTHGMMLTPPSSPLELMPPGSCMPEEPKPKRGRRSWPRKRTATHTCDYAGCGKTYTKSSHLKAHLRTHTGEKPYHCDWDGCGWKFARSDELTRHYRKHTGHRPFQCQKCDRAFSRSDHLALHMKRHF

In the case of “MUC1-CD(47-72): GST fusion of MUC1-CD deletion fragment, amino acids 47-72 (EKVSAGNGGSSLSYTNPAVAAASANL; also: GST fusion (side not given here); listed as Homo sapiens)”, the “binding of [35S]-labeled KLF4 to GST fusion protein” value with KLF4 was “not”.

B1: MUC1-CD(1-72): GST fusion of the MUC1 cytoplasmic domain, amino acids 1-72 (SEQ ID NO:2) (protein)
chain: CQCRRKNYGQLDIFPARDTYHPMSEYPTYHTHGRYVPPSSTDRSPYEKVSAGNGGSSLSYTNPAVAAASANL
modifications: left off: a dimerising Fc or GST
In the case of B1, the “binding of [35S]-labeled KLF4 to GST fusion protein” value with KLF4 is “binds”.

B2: MUC1-CD: MUC1 cytoplasmic domain expressed in cells by transfection of the pCMV-MUC1-CD vector (protein, listed as Homo sapiens)
chain: B1 chain
On to B2, for which the “p53 levels (immunoblot)” value in assay [1] is reported as “downregulates p53 levels”. Moreover, the “p53 gene transcription (luciferase activity)” value in the assay on p53 promoter [2] (ZR-75-1/MUC1siRNA cells, −2400-p53-Luc or −320-p53-Luc, 40 h after transfection) is recorded as “suppresses p53 gene transcription”. In addition, the “effect on KLF4-mediated suppression of p53 transcription (luciferase)” value in the assay with p53 promoter [2] (ZR-75-1 cells, −2400-p53-Luc, 0.5 μg MUC1-CD, increasing amounts of KLF4) was “potentiates KLF4-mediated suppression of p53 transcription”; in the assay with p53 promoter [3] it was “potentiates KLF4-mediated suppression of p53 transcription”.

Values taken from patent publication US8012695B2, “Methods and compositions relating to promoter regulation by MUC1 and KLF proteins” (Dana-Farber Cancer Institute, Inc., priority 2007, dated 2011).
